The nature of this data set: yeast display, Sf9 membrane polyspecificity reagent, FACS + sequencing; frameworks hold sequencing errors. The essentials:
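Galactose induction of a Saccharomyces cerevisiae BJ5465 synthetic nanobody display library ran 36–48 hours. The cells were then stained for 1 hour at 4 °C with 10% biotinylated, detergent-solubilized Sf9 membrane reagent, pulled down on streptavidin microbeads and FACS-sorted into low and high (top ~1%) gates on expression and reagent-binding fluorescence. Labels for polyreactivity follow the gate of origin.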
For “QVQLVESGGGLVQAGGSLRLSCAASGSIFKHNAMGWYRQAPGKERELVATISESGGSTYYADSVKGRFTISRDNAKNTVYLQMNSLKPEDTAVYYCNTDYDYGWWDLGEYDYWGQGTQVTVSS”, the “polyreactivity (PSR sort gate)” value is recorded as “low polyreactivity”.

“QVQLVESGGGLVQAGGSLRLSCAASGSIFKINAMGWYRQAPGKERELVATITWSTGTSYYADSVKGRFTISRDNAKNTVYLQMNSLKPEDTAVYYCATDGDSTKLDYWGQGTQVTVSS”: the “polyreactivity (PSR sort gate)” value is listed as “low polyreactivity”.

As for “QVQLVESGGGLVQAGGSLRLSCAASGSIFKINAMGWYRQAPWKERDFVAAITWSGGSTYYADSVKGRFTISRDNAKHTVYLQMNSLKPEDTAVYYCNARYFNYSTFGGKMGYWGQGTQVTVSS”, the “polyreactivity (PSR sort gate)” value was “high polyreactivity”.

Regarding “QVQLVESGGGLVQAGGSLRLSCAASGSIFKINTMGWYRQAPRQERELVAAISKRGGSTYYADSVKGRFTISRDNAKITVYLQMNSLKPDDTAVYYCAAREFYKYYYWGQVTQVTVSS”, the “polyreactivity (PSR sort gate)” value is “high polyreactivity”.

As for “QVQLVESGGGLVQAGGSLRLSCAASGSIFKIYAMGWYRQAHGKERELVAAISRRGSSTSYADSVKGRFTISRDNAKNTVYLQMNSLKPEDTAVYYCAARYISNPMDYWGQGTQVTVSS”, the “polyreactivity (PSR sort gate)” value is listed as “high polyreactivity”.

For “QVQLVESGGGLVQAGGSLRLSCAASGSIFKKYAMGWYRPAPGKERELVAAITRGTYYADSVKGRFTISRDNAKNTVYLQMNSLKPEDTAVYDCNREYWGRGYYRVRGEYDYWGQGTQVSVSS”, the “polyreactivity (PSR sort gate)” value is listed as “low polyreactivity”.

With “QVQLVESGGGLVQAGGSLRLSCAASGSIFKKYAMGWYRQAPGKERELVAAITSGGSTYYADSVKGRFTISRDNAKNTVYLQMNSLKPEDTAVYYCATYRKGSLGSWGQGTQVTVSS”, the “polyreactivity (PSR sort gate)” value is “high polyreactivity”.

For “QVQLVESGGGLVQAGGSLRLSCAASGSIFKLNAMGWYRQAPGKERELVAVINKSGGRTYYADSVKGRFTISRDNAKNTVYFQMNSLKPEDTAVYYCNAVSKLAVNLDYWGQGTQVTVSS”, the “polyreactivity (PSR sort gate)” value is recorded as “high polyreactivity”.

Regarding “QVQLVESGGGLVQAGGSLRLSCAASGSIFKLNAMGWYRQAPGKERELVAVINKSGGRTYYADSVKGRFTISRDNAKNTVYLQMNSLKPEDTAVYFCNAVSKLAVNLDYWGQGTQVTVSS”, the “polyreactivity (PSR sort gate)” value is “high polyreactivity”.

As to “QVQLVESGGGLVQAGGSLRLSCAASGSIFKPYAMGWYRQAPGKERELVAAISTRGSSTYYADSVKGRFTISRDNAKNTVYLQMNSLIPEDTAVYYCAKRRYLWGYEYDSWGQGTQVTVSS”, the “polyreactivity (PSR sort gate)” value is given as “high polyreactivity”.

Take “QVQLVESGGGLVQAGGSLRLSCAASGSIFKVNTMGWHRQAPGTERELVAAISSSDDSTYYADSVKGRFTISRDNAKNTVYLQMNSLKPEDTAVYYCAADGSSVDSGGINDEYWGQGTQVTVSS”: the “polyreactivity (PSR sort gate)” value was “low polyreactivity”.

In the case of “QVQLVESGGGLVQAGGSLRLSCAASGSIFKVNTMGWYRQAPGKERELVAAISSSDDSTYYADSVKGRFTISRDNAKNTVYLQMNSLKPEDTAVYYCAADGSSVDSGGINDEYWGQGTQVTVSS”, the “polyreactivity (PSR sort gate)” value was “low polyreactivity”.

As to “QVQLVESGGGLVQAGGSLRLSCAASGSIFKVNTMGWYRQAPGKERELVAAISYSGGSTYYADSVKGRFTISRDHAKNTVYLQMNSLKPEDTAVYYCNVSPTTSGDGGGYDSWGQGTQVTVSS”, the “polyreactivity (PSR sort gate)” value was “low polyreactivity”.

Take “QVQLVESGGGLVQAGGSLRLSCAASGSIFKYYAKGWYRQAPGKERELVAAITIGGNTNYADSVKGRFTISRDNAKNTVYLQMNSLKPEDTAVYYCATGGYYSAIVYGGYDYWGHGTQVTVSS”: the “polyreactivity (PSR sort gate)” value is reported as “low polyreactivity”.

In the case of “QVQLVESGGGLVQAGGSLRLSCAASGSIFKYYAMGWYRQAPGKERELLADISFGGDSTYYADSVKGRFTISRDNAKNTVYLQMNSLIPEDTAVYYCAAAPYFWFVEYDYWGQGTQVTVSS”, the “polyreactivity (PSR sort gate)” value is listed as “low polyreactivity”.

Take “QVQLVESGGGLVQAGGSLRLSCAASGSIFKYYAMGWYRQAPGKERELVAAINSGGDTYYADSVKGRFTISRDNAKNTVYLQMNSLKPEDTAVYYCAAYGYAGYAHRDMDYWGQGSQVTVSS”: the “polyreactivity (PSR sort gate)” value is “low polyreactivity”.

As for “QVQLVESGGGLVQAGGSLRLSCAASGSIFKYYAMGWYRQAPGKERELVAAISSGGRTYYADSVKGRFTISRDNAKNTVYLQMNSLKPEDTAVYYCNRPPWSRGSNYWGQGTQVTVSS”, the “polyreactivity (PSR sort gate)” value is “high polyreactivity”.

For the sequence “QVQLVESGGGLVQAGGSLRLSCAASGSIFKYYAMGWYRQAPGKERELVAAITGSGGNTYYADSVKGRFTISRDNAKNTVYLQMNSLKPEDTAVYYCAATYWWAYVWAYSHVKSTNDYWGQGTQVTVSS”, the “polyreactivity (PSR sort gate)” value is reported as “low polyreactivity”.

In the case of “QVQLVESGGGLVQAGGSLRLSCAASGSIFKYYAMGWYRQAPGKERELVAAITSSGARTYYADSVKGRFTISRDNAKNTVYLQMNSLKPEDTAVYYCRGYVRDQSKYDYWGQGTQVTVSS”, the “polyreactivity (PSR sort gate)” value is recorded as “high polyreactivity”.

For “QVQLVESGGGLVQAGGSLRLSCAASGSIFKYYTMGWYRQAPGKDRELVAAISSGGSTTYADSVKGRFTISRDNAKNSVYLQMNSLKPEDTAVYCCAAGYGYPTFVERDYWGHGTQVTVSS”, the “polyreactivity (PSR sort gate)” value is “high polyreactivity”.

“QVQLVESGGGLVQAGGSLRLSCAASGSIFLENTMGWYRQAPGKERELVAAITSSGDSTYADSVKGRFTISRDNAKNTVYLQMNSLKPEDTAVYYCNKDYDDIAPTRAVLDRYDYWGQGTQVTVSS”: the “polyreactivity (PSR sort gate)” value was “low polyreactivity”.

“QVQLVESGGGLVQAGGSLRLSCAASGSIFLFYTMGWYRQAPGKERELVASSSGGGTHYADSVKGRFTISRDNAKNTVYLQMNSLKPEDTAVYYCATPNKNGQNLGGVWEAYDYWGQGTQVTVSS”: the “polyreactivity (PSR sort gate)” value is reported as “low polyreactivity”.

As for “QVQLVESGGGLVQAGGSLRLSCAASGSIFLFYTMGWYRQATGKERELVAAISYSGGNTYYADSVKGRFTISRDNATNTVYLQMNSLKPEDTAVYYCNVRTQWARYDYWRQGTQVTVSS”, the “polyreactivity (PSR sort gate)” value is “high polyreactivity”.

With “QVQLVESGGGLVQAGGSLRLSCAASGSIFLGNAMGWYRQAPGKESELVAAISSITGRTYYADSVKGRFTISRDNAKNTVYLQMNSLKPEDTAVYYCNKVKRSFIVNTDDYWGQGTQVTVSS”, the “polyreactivity (PSR sort gate)” value is “high polyreactivity”.

In the case of “QVQLVESGGGLVQAGGSLRLSCAASGSIFLGYAMGWYRQAPGKERELVATITSSGSTSYADSVKGRFTISRDNAKNTVYLQMKSLKPEDTAVYFCNTDLFQYGVNHYEYWGQGTQVTVSS”, the “polyreactivity (PSR sort gate)” value was “high polyreactivity”.

Consider “QVQLVESGGGLVQAGGSLRLSCAASGSIFLHNAMGWYRQAPGKERELVAGITSSGTSTYYADSVKGRFTISRDNEKNTVYLQMNSLKPEDTAVYYCAAYRYGSRGGYCGQGTQVTVSS”, for which the “polyreactivity (PSR sort gate)” value is “high polyreactivity”.

Turning to “QVQLVESGGGLVQAGGSLRLSCAASGSIFLHNAMGWYRQAPGKERELVAVITSRGGSTYYADSVKGRLTISRDNAKNTVYLQMKSLKPEDTAVYYCAAPAYHKRTSRGDYWGQGTQVTVSS”, the “polyreactivity (PSR sort gate)” value is given as “low polyreactivity”.

Take “QVQLVESGGGLVQAGGSLRLSCAASGSIFLHYAMGWYRQAPGKERELVAAISRSGGRTYYADSVKGRFTISRDNAKNTVYLQMNSLKPEDTAVYYCAARVPRYRKDSVWAYYYWGQGPQVTVSS”: the “polyreactivity (PSR sort gate)” value was “high polyreactivity”.

With “QVQLVESGGGLVQAGGSLRLSCAASGSIFLINAMGWYRPAPGKERELVAAITWSGGRTYYADSVKGRFTISRDNAKNTVYLQMNSLKPEDTAVYYCATRKRRSRPPTYDYWGQGTQVTVSS”, the “polyreactivity (PSR sort gate)” value is listed as “high polyreactivity”.

With “QVQLVESGGGLVQAGGSLRLSCAASGSIFLIYAMGWYRQAPGKERELVATINRGDNTYYADSVKGRFTISRDNAKNTVYLQMNSLKPEDTAVYYCAARAYDLGYAGYDYWGQGTQVTVSS”, the “polyreactivity (PSR sort gate)” value is given as “low polyreactivity”.

Source of the values: the nanobody polyreactivity screen of Harvey et al. (2022).
